Measurements: patent US20250282885A1 (VST BIO, published 2025)

Experiments:
[1] = target: T1, human Sdc2 (human, UniProt P34741 19-144, limits assumed); assay: Octet tandem binning; saturating Ab m5 19844-R4M-P3-A12 (row boxed, self-self >0.09)
T1 construct: Antigen of the Octet tandem binning, loaded on biosensors at 100 nM; also called huSdc2; hSdc2
Method: (§1) These studies were performed in a tandem binning assay format with human Sdc2, used as the antigen (concentration of 100 nM). Antigen loaded biosensors were dipped in a saturating solution of antibody (25 μg/ml) for 240 seconds followed by a competing antibody at 5 μg/ml for 180 seconds. […] Since saturation is not possible to achieve saturation with these clones, they are removed in as ligands, but retained in the analyte orientation in the analysis. A table summarizing the results of epitope binning of the 18 antibodies against huSdc2 is illustrated in FIG. 30. Data is normalized, where the raw binding signal from Competing Ab for a given Saturating Ab is divided by binding in the absence a […] (“buffer”). The threshold determining the matrix color is adjustable and dependent upon Ag-Ab binding. […] Table rows are based on similar looking binding profiles. Note that the coloration/cutoff is subjective, yellow color added to represent injections with ambiguous or very weak sandwiching signals. FIG. 31 illustrates a clustergram of the epitope binning studies, which was generated from the normalized binning data by importation into the statistical computing program R (The R Project for Statistical Computing: at r-project.org) and generation of a clustergram with the pvclust package.

[2] = target: T1, human Sdc2; assay: Octet BLI, HIS1K sensor loaded with huSdc2, antibody as sample; Full R2 0.9738
[3] = target: T1, human Sdc2; assay: Octet tandem binning; saturating Ab f6 19844-R3-P3-E09
Method: as §1

[4] = target: T1, human Sdc2; assay: Octet tandem binning; saturating Ab m8 19844-R4M-P1-B01 (marked non-binding ligand)
Method: as §1

[5] = target: T1, human Sdc2; assay: Octet tandem binning; saturating Ab f5 19844-R4M-P3-E06
Method: as §1

[6] = target: T1, human Sdc2; assay: Octet tandem binning; saturating Ab f10 19838-10-I12-A
Method: as §1

[7] = target: T1, human Sdc2; assay: Octet tandem binning; saturating Ab f9 19838-6-E17-A
Method: as §1

[8] = target: T1, human Sdc2; assay: Kd (human Sdc2), summary table of the mAbs
[9] = target: T1, human Sdc2; assay: Octet tandem binning; saturating Ab m6 19838-20H19-AA (marked non-binding ligand)
Method: as §1

[10] = target: T1, human Sdc2; assay: Octet tandem binning; saturating Ab m3 19844-R3-P1-C02 (row boxed, self-self >0.09)
Method: as §1

[11] = target: T1, human Sdc2; assay: Octet tandem binning; saturating Ab f12 19838-6-N03-A
Method: as §1

[12] = target: T1, human Sdc2; assay: Octet tandem binning; saturating Ab m7 19844-R3-P1-E07
Method: as §1

[13] = target: T1, human Sdc2; assay: Octet tandem binning; saturating Ab m2 19838-8G17-A
Method: as §1

[14] = target: T1, human Sdc2; assay: Octet tandem binning; saturating Ab m1 19838-20H19-AB
Method: as §1

[15] = target: T2, pig Sdc2 (pig, UniProt F1S0L5 19-145); assay: Octet BLI, HIS1K sensor loaded with pigSdc2, antibody as sample; Full R2 0.9504
T2 construct: also called pSdc2

[16] = target: T1, human Sdc2; assay: Octet tandem binning; saturating Ab f7 19844-R3-P3-A12
Method: as §1

[17] = target: T1, human Sdc2; assay: Octet BLI, heading box over the sensorgram
[18] = target: T2, pig Sdc2; assay: Octet BLI, heading box over the sensorgram
[19] = target: T1, human Sdc2; assay: Octet tandem binning; Buffer in place of a saturating Ab
Method: as §1

[20] = target: T1, human Sdc2; assay: Octet tandem binning; saturating Ab f11 19838-20-H19-A
Method: as §1

[21] = target: T1, human Sdc2; assay: Octet tandem binning; saturating Ab m4 19844-R4M-P1-A10
Method: as §1

[22] = target: T1, human Sdc2; assay: Octet tandem binning; saturating Ab f8 19844-R4M-P2-C02
Method: as §1

[23] = target: T1, human Sdc2; assay: Octet tandem binning; saturating Ab f3 19838-6N03-A
Method: as §1

[24] = target: human Sdc2 on Human Umbilical Vein Endothelial Cells (HUVEC) (human, UniProt P34741 19-201); assay: cell-based or functional assay
Chain of human Sdc2 on Human Umbilical Vein Endothelial Cells (HUVEC) (P34741 19-201 limits assumed): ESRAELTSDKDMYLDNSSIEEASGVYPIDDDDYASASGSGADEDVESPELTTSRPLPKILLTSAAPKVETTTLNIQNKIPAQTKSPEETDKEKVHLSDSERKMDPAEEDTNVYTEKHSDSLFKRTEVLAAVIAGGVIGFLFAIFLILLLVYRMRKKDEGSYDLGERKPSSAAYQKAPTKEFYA

[25] = target: T1, human Sdc2; assay: Octet BLI, heading box over the sensorgram; remark: listed apart in the source
[26] = target: T1, human Sdc2; assay: Octet BLI, AHC sensor loaded with the antibody, huSdc2 as sample; Full R2 0.9525
Method: In order to characterize the binding affinity and in vivo/in vitro functional ability of the twelve clones generated by the previous studies and disclosed in Table 1, a series of assays were performed on each clone. These assays measured the affinity of each antibody clone for human, pig, and mouse Sdc2 using an Octet® binding assay system. Additionally, the functional ability of each clone to inhibit VEGFA-driven permeability (see Santiago, et al. (2021) J Am Heart Assoc. 10(18):e020521) was assessed in two therapeutic settings: a “prevention” study in which three concentrations of antibody (5 μg/ml, 10 μg/ml, 15 μg/ml, 20 μg/ml, and/or 40 μg/ml depending on the study) were pre-incubated for an hour before administration of 100 ng/ml of VEGFA, and a “treatment” study in which 3 hours of pre-treatment with 100 ng/ml VEGFA were followed by treatment with antibody at 20 μg/ml or 40 μg/ml. Results are shown for 8-G17 in FIG. 8 and FIG. 9, 20-H19-AB in FIG. 10 and FIG. 11 (FIG. 12 for monkey ECs), R3-P3-C11 in FIG. 13 and FIG. 14, R4M-P3-E06 in FIG. 15 and FIG. 16, R3-P3-E09 in FIG. 17 and FIG. 18, R3-P1-C02 in FIG. 19 and FIG. 20, R3-P3-A12 in FIG. 21 and FIG. 22, R4M-P3-A12 in FIG. 23 and FIG. 24, and R4M-P1-A10 in FIG. 25 and FIG. 26.

[27] = target: T1, human Sdc2; assay: Octet tandem binning; saturating Ab f4 19844-R3-P3-C11
Method: as §1

[28] = target: T1, human Sdc2; assay: Octet BLI, AHC sensor loaded with the antibody, huSdc2 as sample (curves huSdc2, 2000 and 1000, unit inferred); Full R2 0.9525

T1 sequence (P34741 19-144 limits assumed): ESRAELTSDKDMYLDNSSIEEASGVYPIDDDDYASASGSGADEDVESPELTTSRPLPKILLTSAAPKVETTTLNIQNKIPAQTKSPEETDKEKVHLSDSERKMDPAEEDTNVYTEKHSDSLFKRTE

Binder | raw competing-Ab binding signal [1] | raw competing-Ab binding signal [3] | raw competing-Ab binding signal [4] | raw competing-Ab binding signal [6] | raw competing-Ab binding signal [7] | Kd [8] [nM] | raw competing-Ab binding signal [9] | raw competing-Ab binding signal [10] | raw competing-Ab binding signal [11] | raw competing-Ab binding signal [12] | raw competing-Ab binding signal [13] | raw competing-Ab binding signal [14] | raw competing-Ab binding signal [16] | raw competing-Ab binding signal [19] | raw competing-Ab binding signal [20] | raw competing-Ab binding signal [21] | raw competing-Ab binding signal [22] | raw competing-Ab binding signal [23] | % Inhibition of VEGFA-induced permeability at 24hrs (20ug/ml) [24] [%] | also measured
R3-P3-C11 (antibody, human IgG1, kappa, V domains shown, human IgG1 kappa from the phage campaign) VH: EVQLVESGGGLVQPGRSLRLACEASGFTFNNYAVHWVRQAPGKGLEWVAVISYDGTNKYYSDSMKGRFTISRDNSKNTLYLQINSLRVEDTAVYFCARGNYVRRDSFDIWGQGTMVTVSS VL: DIQMTQSPPSLSASVGDRVTITCRASQSISSYLNWYQQKPGKAPKLLIYGASSLQSGVPLRFSGSGSGADFTLTISSLQPEDFATYYCQQSYISPITFGQGTRLEIKR | 0.562 | 0.299 | 0.576 | 0.351 | 0.542 | 2.26 | 0.593 | 0.491 | 0.697 | 0.573 | 0.629 | 0.569 | -0.0267 | 0.523 | 0.585 | 0.518 | 0.479 | 0.645 | 100 | Kd [2]: 2.26 nM; koff [2]: 0.00304 s⁻¹; kon [2]: 1.34e+06 M⁻¹ s⁻¹; raw competing-Ab binding signal [5]: 0.61; Kd [15]: 10.2 nM; koff [15]: 0.0417 s⁻¹; kon [15]: 4.1e+06 M⁻¹ s⁻¹; Kd [17]: ~2.26 nM; Kd [18]: ~10.2 nM
R4M-P3-E06 (antibody, human IgG1, kappa, V domains shown, human IgG1 kappa from the phage campaign) VH: EVQLVESGGGVVQPGGSLRLSCAASGFTFSNYGMHWVRQAPGKGLEWVATISYDGTKKYYPDSVRGRFTISRDNSENMLYLQMDSLRLEDTAVIYCAKDLVSGSRYGFAFDSWGPGTLVTVSS VL: DIVMTQSPLSLPVTLGQPASISCRSSQSLVHSDGNTYLNWFQQRPGQSPRRLIYKVSNRDSGVPDRFSGTGSGTDFTLKISRVEADDVGVYYCMQGTHWPPIFGQGTRLEIKR | 0.223 | 0.025 | 0.25 | 0.241 | 0.231 | 448 | 0.251 | 0.0913 | 0.252 | 0.247 | 0.183 | 0.284 | 0.0799 | 0.256 | 0.311 | 0.116 | 0.0709 | 0.209 | 95 | Kd [25]: ~480 nM; koff [26]: 0.041 s⁻¹; kon [26]: 84000 M⁻¹ s⁻¹; raw competing-Ab binding signal [27]: 0.0598; Kd [28]: 488 nM
